Earlier results as cited in PMC5709052.
Where two headings read alike, the source gives them in different places.

Experiments:
[1] = molecular target: CYP102A1 reductase domain (BMR) reductase domain (Priestia megaterium) (UniProt P14779)
[2] = molecular target: CYP102A1 reductase domain (BMR) reductase domain (Priestia megaterium) (UniProt P14779); assay: absorption spectroscopy titration
[3] = molecular target: CYP102A1 reductase domain (BMR) reductase domain (Priestia megaterium) (UniProt P14779); assay: absorption spectroscopy titration; remark: listed apart in the source
[4] = molecular target: CYP102A1 reductase domain (BMR) reductase domain (Priestia megaterium) (UniProt P14779); remark: listed apart in the source

Sequence of UniProt P14779 (P14779 473-1049): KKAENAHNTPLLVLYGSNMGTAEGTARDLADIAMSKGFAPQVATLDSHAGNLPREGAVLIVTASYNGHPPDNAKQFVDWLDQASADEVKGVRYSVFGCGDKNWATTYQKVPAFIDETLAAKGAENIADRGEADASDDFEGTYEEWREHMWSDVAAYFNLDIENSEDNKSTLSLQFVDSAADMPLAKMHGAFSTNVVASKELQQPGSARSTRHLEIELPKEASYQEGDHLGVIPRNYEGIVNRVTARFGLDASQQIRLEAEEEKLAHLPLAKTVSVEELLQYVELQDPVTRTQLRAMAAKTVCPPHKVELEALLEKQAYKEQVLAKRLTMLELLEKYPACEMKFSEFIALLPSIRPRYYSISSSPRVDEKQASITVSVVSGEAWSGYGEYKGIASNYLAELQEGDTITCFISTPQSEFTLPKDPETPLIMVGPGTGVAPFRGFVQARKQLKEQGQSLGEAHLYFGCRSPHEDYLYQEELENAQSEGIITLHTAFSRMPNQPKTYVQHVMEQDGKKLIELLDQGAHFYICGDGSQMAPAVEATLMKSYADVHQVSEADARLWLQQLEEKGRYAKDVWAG

## CYP2B4 (from UniProt P00178)
[1]
  Kd: 370 nM

## CYP3A4 (from UniProt P08684)
[2]
  Kd: 140 nM
[3]
  Kd: 100 nM
[4]
  Kd: 480 nM
